Assay results taken from patent US20260209293A1 (Novo Nordisk, published 2026).
*1 amine or outer side, *2 acyl side, *3 side chain or, on linkers, in order; H or OH if unused. The star is where a group is joined. C20 diacid = O=C(O)CCCCCCCCCCCCCCCCCCC(=O)*; C18 diacid = O=C(O)CCCCCCCCCCCCCCCCC(=O)*; γGlu = O=C(O)[C@H](CCC(=O)[*:2])N[*:1]

T1: human amylin-3(a) receptor (human, UniProt P30988 25-474; O60896 24-148)
T1 sequence (looked up) 1: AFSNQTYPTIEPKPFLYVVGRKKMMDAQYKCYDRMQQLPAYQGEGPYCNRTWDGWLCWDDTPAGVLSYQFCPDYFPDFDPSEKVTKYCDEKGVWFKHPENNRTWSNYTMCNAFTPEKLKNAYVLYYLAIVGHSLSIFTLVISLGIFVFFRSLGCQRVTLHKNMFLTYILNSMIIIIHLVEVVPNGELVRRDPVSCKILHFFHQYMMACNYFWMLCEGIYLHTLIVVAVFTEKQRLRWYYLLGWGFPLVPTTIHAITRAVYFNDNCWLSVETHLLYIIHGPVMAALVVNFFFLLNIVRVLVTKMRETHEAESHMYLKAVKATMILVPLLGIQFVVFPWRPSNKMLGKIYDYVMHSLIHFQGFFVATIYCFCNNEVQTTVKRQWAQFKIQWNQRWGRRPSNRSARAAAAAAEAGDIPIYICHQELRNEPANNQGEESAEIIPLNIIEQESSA
T1 sequence (looked up) 2: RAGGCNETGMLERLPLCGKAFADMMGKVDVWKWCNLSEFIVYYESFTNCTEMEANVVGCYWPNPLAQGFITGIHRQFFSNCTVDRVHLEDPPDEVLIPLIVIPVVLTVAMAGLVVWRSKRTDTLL

T2: human calcitonin receptor (a) (human, UniProt P30988 25-474)
T2 sequence (looked up): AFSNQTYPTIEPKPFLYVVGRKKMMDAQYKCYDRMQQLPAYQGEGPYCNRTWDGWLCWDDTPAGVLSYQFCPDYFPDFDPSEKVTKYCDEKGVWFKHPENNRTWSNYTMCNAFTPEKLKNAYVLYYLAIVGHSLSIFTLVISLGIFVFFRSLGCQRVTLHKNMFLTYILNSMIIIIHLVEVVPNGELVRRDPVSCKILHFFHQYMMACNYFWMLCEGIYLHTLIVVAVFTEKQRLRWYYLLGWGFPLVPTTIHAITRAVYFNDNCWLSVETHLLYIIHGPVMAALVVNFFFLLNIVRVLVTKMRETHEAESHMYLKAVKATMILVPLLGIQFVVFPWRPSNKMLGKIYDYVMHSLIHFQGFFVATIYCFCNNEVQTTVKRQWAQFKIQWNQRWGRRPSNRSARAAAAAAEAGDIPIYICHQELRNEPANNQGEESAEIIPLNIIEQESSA


How the values were obtained:
[1] = molecular target: T1, human amylin-3(a) receptor; assay: cell-based or functional assay
[2] = molecular target: T2, human calcitonin receptor (a); assay: cell-based or functional assay

Row | Binder | hAmyR3 potency, EC50 (pM); CRE-luciferase reporter in BHK cells [1] [pM] | hCalcR potency, EC50 (pM); CRE-luciferase reporter in BHK cells [2] [pM]
1 | {C20 diacid-γGlu}-ASHLSTAQTARLAEFLHHSSDNFGPILPPTDVGSNTP-NH2 (SMILES CC[C@H](C)[C@H](NC(=O)[C@@H]1CCCN1C(=O)CNC(=O)[C@H](Cc1ccccc1)NC(=O)[C@H](CC(N)=O)NC(=O)[C@H](CC(=O)O)NC(=O)[C@H](CO)NC(=O)[C@H](CO)NC(=O)[C@H](Cc1c[nH]cn1)NC(=O)[C@H](Cc1c[nH]cn1)NC(=O)[C@H](CC(C)C)NC(=O)[C@H](Cc1ccccc1)NC(=O)[C@H](CCC(=O)O)NC(=O)[C@H](C)NC(=O)[C@H](CC(C)C)NC(=O)[C@H](CCCNC(=N)N)NC(=O)[C@H](C)NC(=O)[C@@H](NC(=O)[C@H](CCC(N)=O)NC(=O)[C@H](C)NC(=O)[C@@H](NC(=O)[C@H](CO)NC(=O)[C@H](CC(C)C)NC(=O)[C@H](Cc1c[nH]cn1)NC(=O)[C@H](CO)NC(=O)[C@H](C)NC(=O)CC[C@H](NC(=O)CCCCCCCCCCCCCCCCCCC(=O)O)C(=O)O)[C@@H](C)O)[C@@H](C)O)C(=O)N[C@@H](CC(C)C)C(=O)N1CCC[C@H]1C(=O)N1CCC[C@H]1C(=O)N[C@H](C(=O)N[C@@H](CC(=O)O)C(=O)N[C@H](C(=O)NCC(=O)N[C@@H](CO)C(=O)N[C@@H](CC(N)=O)C(=O)N[C@H](C(=O)N1CCC[C@H]1C(N)=O)[C@@H](C)O)C(C)C)[C@@H](C)O) | 0.77 | 1.31
2 | {C18 diacid-γGlu}-AGSLSTAQTQRLAEFLHHSSDPFGAIPSSTDVGPDTP-NH2 (SMILES CC[C@H](C)[C@H](NC(=O)[C@H](C)NC(=O)CNC(=O)[C@H](Cc1ccccc1)NC(=O)[C@@H]1CCCN1C(=O)[C@H](CC(=O)O)NC(=O)[C@H](CO)NC(=O)[C@H](CO)NC(=O)[C@H](Cc1c[nH]cn1)NC(=O)[C@H](Cc1c[nH]cn1)NC(=O)[C@H](CC(C)C)NC(=O)[C@H](Cc1ccccc1)NC(=O)[C@H](CCC(=O)O)NC(=O)[C@H](C)NC(=O)[C@H](CC(C)C)NC(=O)[C@H](CCCNC(=N)N)NC(=O)[C@H](CCC(N)=O)NC(=O)[C@@H](NC(=O)[C@H](CCC(N)=O)NC(=O)[C@H](C)NC(=O)[C@@H](NC(=O)[C@H](CO)NC(=O)[C@H](CC(C)C)NC(=O)[C@H](CO)NC(=O)CNC(=O)[C@H](C)NC(=O)CC[C@H](NC(=O)CCCCCCCCCCCCCCCCC(=O)O)C(=O)O)[C@@H](C)O)[C@@H](C)O)C(=O)N1CCC[C@H]1C(=O)N[C@@H](CO)C(=O)N[C@@H](CO)C(=O)N[C@H](C(=O)N[C@@H](CC(=O)O)C(=O)N[C@H](C(=O)NCC(=O)N1CCC[C@H]1C(=O)N[C@@H](CC(=O)O)C(=O)N[C@H](C(=O)N1CCC[C@H]1C(N)=O)[C@@H](C)O)C(C)C)[C@@H](C)O) | 1.44 | 1.49
3 | {C18 diacid-γGlu-γGlu}-ASHLSTAQTQRLAEFLHHSSDPFGAIPSSTDVGPDTP-NH2 (SMILES CC[C@H](C)[C@H](NC(=O)[C@H](C)NC(=O)CNC(=O)[C@H](Cc1ccccc1)NC(=O)[C@@H]1CCCN1C(=O)[C@H](CC(=O)O)NC(=O)[C@H](CO)NC(=O)[C@H](CO)NC(=O)[C@H](Cc1c[nH]cn1)NC(=O)[C@H](Cc1c[nH]cn1)NC(=O)[C@H](CC(C)C)NC(=O)[C@H](Cc1ccccc1)NC(=O)[C@H](CCC(=O)O)NC(=O)[C@H](C)NC(=O)[C@H](CC(C)C)NC(=O)[C@H](CCCNC(=N)N)NC(=O)[C@H](CCC(N)=O)NC(=O)[C@@H](NC(=O)[C@H](CCC(N)=O)NC(=O)[C@H](C)NC(=O)[C@@H](NC(=O)[C@H](CO)NC(=O)[C@H](CC(C)C)NC(=O)[C@H](Cc1c[nH]cn1)NC(=O)[C@H](CO)NC(=O)[C@H](C)NC(=O)CC[C@H](NC(=O)CC[C@H](NC(=O)CCCCCCCCCCCCCCCCC(=O)O)C(=O)O)C(=O)O)[C@@H](C)O)[C@@H](C)O)C(=O)N1CCC[C@H]1C(=O)N[C@@H](CO)C(=O)N[C@@H](CO)C(=O)N[C@H](C(=O)N[C@@H](CC(=O)O)C(=O)N[C@H](C(=O)NCC(=O)N1CCC[C@H]1C(=O)N[C@@H](CC(=O)O)C(=O)N[C@H](C(=O)N1CCC[C@H]1C(N)=O)[C@@H](C)O)C(C)C)[C@@H](C)O) | 2.18 | 1.68
4 | {C20 diacid-γGlu}-ASHLSTAQTQRLAEFLHHSSDPFGAIPSSTDVGPDTP-NH2 (SMILES CC[C@H](C)[C@H](NC(=O)[C@H](C)NC(=O)CNC(=O)[C@H](Cc1ccccc1)NC(=O)[C@@H]1CCCN1C(=O)[C@H](CC(=O)O)NC(=O)[C@H](CO)NC(=O)[C@H](CO)NC(=O)[C@H](Cc1c[nH]cn1)NC(=O)[C@H](Cc1c[nH]cn1)NC(=O)[C@H](CC(C)C)NC(=O)[C@H](Cc1ccccc1)NC(=O)[C@H](CCC(=O)O)NC(=O)[C@H](C)NC(=O)[C@H](CC(C)C)NC(=O)[C@H](CCCNC(=N)N)NC(=O)[C@H](CCC(N)=O)NC(=O)[C@@H](NC(=O)[C@H](CCC(N)=O)NC(=O)[C@H](C)NC(=O)[C@@H](NC(=O)[C@H](CO)NC(=O)[C@H](CC(C)C)NC(=O)[C@H](Cc1c[nH]cn1)NC(=O)[C@H](CO)NC(=O)[C@H](C)NC(=O)CC[C@H](NC(=O)CCCCCCCCCCCCCCCCCCC(=O)O)C(=O)O)[C@@H](C)O)[C@@H](C)O)C(=O)N1CCC[C@H]1C(=O)N[C@@H](CO)C(=O)N[C@@H](CO)C(=O)N[C@H](C(=O)N[C@@H](CC(=O)O)C(=O)N[C@H](C(=O)NCC(=O)N1CCC[C@H]1C(=O)N[C@@H](CC(=O)O)C(=O)N[C@H](C(=O)N1CCC[C@H]1C(N)=O)[C@@H](C)O)C(C)C)[C@@H](C)O) | 0.86 | 1.25

Further lines, results first:

Row | hAmyR3 potency, EC50 (pM); CRE-luciferase reporter in BHK cells [1] [pM] | hCalcR potency, EC50 (pM); CRE-luciferase reporter in BHK cells [2] [pM] | Binder
5 | 1.68 | 1.81 | {C20 diacid-γGlu}-AGHLSTAQTQRLAEFLHHSSDPFGAIPSSTDVGPDTP-NH2 (SMILES CC[C@H](C)[C@H](NC(=O)[C@H](C)NC(=O)CNC(=O)[C@H](Cc1ccccc1)NC(=O)[C@@H]1CCCN1C(=O)[C@H](CC(=O)O)NC(=O)[C@H](CO)NC(=O)[C@H](CO)NC(=O)[C@H](Cc1c[nH]cn1)NC(=O)[C@H](Cc1c[nH]cn1)NC(=O)[C@H](CC(C)C)NC(=O)[C@H](Cc1ccccc1)NC(=O)[C@H](CCC(=O)O)NC(=O)[C@H](C)NC(=O)[C@H](CC(C)C)NC(=O)[C@H](CCCNC(=N)N)NC(=O)[C@H](CCC(N)=O)NC(=O)[C@@H](NC(=O)[C@H](CCC(N)=O)NC(=O)[C@H](C)NC(=O)[C@@H](NC(=O)[C@H](CO)NC(=O)[C@H](CC(C)C)NC(=O)[C@H](Cc1c[nH]cn1)NC(=O)CNC(=O)[C@H](C)NC(=O)CC[C@H](NC(=O)CCCCCCCCCCCCCCCCCCC(=O)O)C(=O)O)[C@@H](C)O)[C@@H](C)O)C(=O)N1CCC[C@H]1C(=O)N[C@@H](CO)C(=O)N[C@@H](CO)C(=O)N[C@H](C(=O)N[C@@H](CC(=O)O)C(=O)N[C@H](C(=O)NCC(=O)N1CCC[C@H]1C(=O)N[C@@H](CC(=O)O)C(=O)N[C@H](C(=O)N1CCC[C@H]1C(N)=O)[C@@H](C)O)C(C)C)[C@@H](C)O)
6 | 1.5 | 1.44 | {C18 diacid-γGlu}-ASHLSTAQTQRLAEFLHHSSDPFGAIPSSTDVGPDTP-NH2 (SMILES CC[C@H](C)[C@H](NC(=O)[C@H](C)NC(=O)CNC(=O)[C@H](Cc1ccccc1)NC(=O)[C@@H]1CCCN1C(=O)[C@H](CC(=O)O)NC(=O)[C@H](CO)NC(=O)[C@H](CO)NC(=O)[C@H](Cc1c[nH]cn1)NC(=O)[C@H](Cc1c[nH]cn1)NC(=O)[C@H](CC(C)C)NC(=O)[C@H](Cc1ccccc1)NC(=O)[C@H](CCC(=O)O)NC(=O)[C@H](C)NC(=O)[C@H](CC(C)C)NC(=O)[C@H](CCCNC(=N)N)NC(=O)[C@H](CCC(N)=O)NC(=O)[C@@H](NC(=O)[C@H](CCC(N)=O)NC(=O)[C@H](C)NC(=O)[C@@H](NC(=O)[C@H](CO)NC(=O)[C@H](CC(C)C)NC(=O)[C@H](Cc1c[nH]cn1)NC(=O)[C@H](CO)NC(=O)[C@H](C)NC(=O)CC[C@H](NC(=O)CCCCCCCCCCCCCCCCC(=O)O)C(=O)O)[C@@H](C)O)[C@@H](C)O)C(=O)N1CCC[C@H]1C(=O)N[C@@H](CO)C(=O)N[C@@H](CO)C(=O)N[C@H](C(=O)N[C@@H](CC(=O)O)C(=O)N[C@H](C(=O)NCC(=O)N1CCC[C@H]1C(=O)N[C@@H](CC(=O)O)C(=O)N[C@H](C(=O)N1CCC[C@H]1C(N)=O)[C@@H](C)O)C(C)C)[C@@H](C)O)
